What follows are sequences tested on Escherichia coli TOP10 (assay: shrunken log2 fold change of peptide-encoding DNA abundance (4.5 h post-induction vs induction); higher = less antimicrobial activity (less host growth inhibition)). Details: time post-induction: 4.5 h; library: site-saturation at positions 5, 18, 19, 20.
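Further: peptides expressed intracellularly from a pBAD plasmid library in pooled LB shake-flask culture, induced with 0.3% L-arabinose, DNA abundance read by NGS, three biological replicates, DESeq2 with apeglm shrinkage.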

Sequence | shrunken log2 fold change
RRIRGRPPRLPRPRPRPCKYPRP | -0.533
RRIRERPPRLPRPRPRPDLHPRP | -0.262
RRIRHRPPRLPRPRPRPFFKPRP | -0.149
RRIRQRPPRLPRPRPRPGPLPRP | -0.035
RRIRIRPPRLPRPRPRPQMAPRP | -0.064
RRIRRRPPRLPRPRPRPCCPPRP | 0.467
RRIRIRPPRLPRPRPRPMIRPRP | -0.511
RRIRKRPPRLPRPRPRPREHPRP | 0.0968
RRIRGRPPRLPRPRPRPEPDPRP | 1.27
RRIRDRPPRLPRPRPRPHFKPRP | -0.148
RRIRTRPPRLPRPRPRPINLPRP | -0.156
RRIRVRPPRLPRPRPRPLELPRP | -0.103
RRIRDRPPRLPRPRPRPPPQPRP | 0.775
RRIRLRPPRLPRPRPRPYHYPRP | -0.16
RRIRMRPPRLPRPRPRPVYSPRP | -0.248
RRIRSRPPRLPRPRPRPMDKPRP | 0.0107
RRIRNRPPRLPRPRPRPNKDPRP | -0.0478
RRIRMRPPRLPRPRPRPIVFPRP | 0.038
RRIRHRPPRLPRPRPRPYEVPRP | 0.028
RRIRWRPPRLPRPRPRPPFYPRP | -0.00501
RRIRQRPPRLPRPRPRPRGLPRP | 0.00877
RRIRGRPPRLPRPRPRPPTSPRP | 0.879
RRIRQRPPRLPRPRPRPKWWPRP | -0.0687
RRIRTRPPRLPRPRPRPEFTPRP | 0.016
RRIRCRPPRLPRPRPRPWWSPRP | 0.119

Sequence | shrunken log2 fold change
RRIRNRPPRLPRPRPRPPGAPRP | 0.665
RRIRHRPPRLPRPRPRPPYWPRP | 1.65
RRIRGRPPRLPRPRPRPESFPRP | 0.0921
RRIRFRPPRLPRPRPRPWWCPRP | -0.0371
RRIRQRPPRLPRPRPRPPAEPRP | 0.589
RRIRQRPPRLPRPRPRPKIVPRP | -0.113
RRIRQRPPRLPRPRPRPIKMPRP | -0.39
RRIRGRPPRLPRPRPRPDPEPRP | 0.593
RRIRCRPPRLPRPRPRPRNAPRP | 0.291
RRIRIRPPRLPRPRPRPGACPRP | -0.243
RRIRYRPPRLPRPRPRPRPNPRP | -0.0554
RRIRNRPPRLPRPRPRPQFTPRP | -0.259
RRIRRRPPRLPRPRPRPSYTPRP | -0.227
RRIRHRPPRLPRPRPRPIATPRP | -0.0153
RRIRARPPRLPRPRPRPLTDPRP | 0.163
RRIRNRPPRLPRPRPRPSQDPRP | -0.102
RRIRWRPPRLPRPRPRPMETPRP | 1.73
RRIRCRPPRLPRPRPRPYHFPRP | -1.01
RRIRVRPPRLPRPRPRPELPPRP | -0.0996
RRIRFRPPRLPRPRPRPRALPRP | 0.148
RRIRTRPPRLPRPRPRPVKCPRP | -0.0123
RRIRDRPPRLPRPRPRPCVLPRP | 0.0171
RRIRNRPPRLPRPRPRPQHTPRP | -0.402
RRIRWRPPRLPRPRPRPQMYPRP | -0.168
RRIRLRPPRLPRPRPRPHAIPRP | -0.346

Sequence | shrunken log2 fold change
RRIRKRPPRLPRPRPRPPLRPRP | 0.708
RRIRARPPRLPRPRPRPTEVPRP | 0.173
RRIRTRPPRLPRPRPRPWPHPRP | -0.091
RRIRGRPPRLPRPRPRPCMLPRP | 0.336
RRIRNRPPRLPRPRPRPIGWPRP | 0.115
RRIRTRPPRLPRPRPRPTYNPRP | -0.593
RRIRFRPPRLPRPRPRPMSLPRP | -0.142
RRIRPRPPRLPRPRPRPIRHPRP | -0.146
RRIRHRPPRLPRPRPRPPNTPRP | -0.0573
RRIRKRPPRLPRPRPRPFRNPRP | -0.309
RRIRNRPPRLPRPRPRPSCIPRP | -0.507
RRIRARPPRLPRPRPRPLFCPRP | 0.00332
RRIRNRPPRLPRPRPRPRLAPRP | 0.404
RRIRCRPPRLPRPRPRPEPGPRP | 0.364
RRIRNRPPRLPRPRPRPSSHPRP | -0.0939
RRIRARPPRLPRPRPRPNMVPRP | -0.175
RRIRIRPPRLPRPRPRPNPQPRP | -0.287
RRIRDRPPRLPRPRPRPFVAPRP | 0.0541
RRIRRRPPRLPRPRPRPLHRPRP | 0.202
RRIRLRPPRLPRPRPRPSCVPRP | -0.0228
RRIRGRPPRLPRPRPRPSVDPRP | 0.861
RRIRDRPPRLPRPRPRPICNPRP | 0.324
RRIRQRPPRLPRPRPRPSGMPRP | -0.143
RRIRSRPPRLPRPRPRPAAVPRP | 0.418
RRIRARPPRLPRPRPRPDAGPRP | 0.94

Sequence | shrunken log2 fold change
RRIRQRPPRLPRPRPRPWWLPRP | 0.27
RRIRLRPPRLPRPRPRPPDQPRP | 0.349
RRIRNRPPRLPRPRPRPTGWPRP | 0.355
RRIRDRPPRLPRPRPRPFPNPRP | -0.503
RRIRQRPPRLPRPRPRPHTPPRP | -0.147
RRIRWRPPRLPRPRPRPHGIPRP | 0.00741
RRIRMRPPRLPRPRPRPTAGPRP | 0.396
RRIRCRPPRLPRPRPRPCDDPRP | 0.0119
RRIRRRPPRLPRPRPRPVPYPRP | -0.195
RRIRARPPRLPRPRPRPAICPRP | 0.252
RRIRARPPRLPRPRPRPGCKPRP | 0.321
RRIRKRPPRLPRPRPRPHSMPRP | 0.0496
RRIRRRPPRLPRPRPRPNFMPRP | 0.142
RRIRPRPPRLPRPRPRPLKDPRP | -0.115
RRIRNRPPRLPRPRPRPTWSPRP | -0.352
RRIRNRPPRLPRPRPRPLQLPRP | -0.288
RRIRYRPPRLPRPRPRPFFMPRP | -0.71
RRIRKRPPRLPRPRPRPTATPRP | 1.4
RRIRLRPPRLPRPRPRPSFLPRP | -0.562
RRIRVRPPRLPRPRPRPTNKPRP | -0.254
RRIRMRPPRLPRPRPRPNHIPRP | -0.407
RRIRWRPPRLPRPRPRPQVCPRP | 0.189
RRIRFRPPRLPRPRPRPADMPRP | -0.155
RRIRLRPPRLPRPRPRPATNPRP | -0.253
RRIRCRPPRLPRPRPRPHNKPRP | -0.75

Sequence | shrunken log2 fold change
RRIRSRPPRLPRPRPRPWMWPRP | -0.0985
RRIRFRPPRLPRPRPRPVHNPRP | -0.104
RRIRKRPPRLPRPRPRPYVTPRP | -0.401
RRIRVRPPRLPRPRPRPWNLPRP | -0.14
RRIRNRPPRLPRPRPRPEFIPRP | -0.304
RRIRFRPPRLPRPRPRPMPDPRP | -0.0671
RRIRQRPPRLPRPRPRPNWIPRP | -0.0614
RRIRGRPPRLPRPRPRPMFEPRP | 0.688
RRIRKRPPRLPRPRPRPTVEPRP | 0.377
RRIRHRPPRLPRPRPRPWNRPRP | -0.297
RRIRWRPPRLPRPRPRPFKKPRP | 0.149
RRIRSRPPRLPRPRPRPECFPRP | 3.03
RRIRNRPPRLPRPRPRPFLCPRP | -0.966
RRIRTRPPRLPRPRPRPFVSPRP | 0.00713
RRIRVRPPRLPRPRPRPANPPRP | -0.21
RRIRYRPPRLPRPRPRPIRLPRP | 0.0224
RRIRKRPPRLPRPRPRPVFYPRP | -0.0751
RRIRFRPPRLPRPRPRPTWNPRP | -0.166
RRIRKRPPRLPRPRPRPAWMPRP | 0.212
RRIRHRPPRLPRPRPRPSAPPRP | -0.239
RRIRSRPPRLPRPRPRPLHSPRP | -0.0322
RRIRGRPPRLPRPRPRPSWGPRP | 0.0507
RRIRCRPPRLPRPRPRPKCWPRP | 0.302
RRIRARPPRLPRPRPRPIICPRP | 0.106
RRIRHRPPRLPRPRPRPPFKPRP | 0.332

Sequence | shrunken log2 fold change
RRIRERPPRLPRPRPRPYLYPRP | -0.927
RRIRMRPPRLPRPRPRPVCMPRP | 0.392
RRIRGRPPRLPRPRPRPQVWPRP | 0.846
RRIRERPPRLPRPRPRPHAIPRP | -0.234
RRIRHRPPRLPRPRPRPKDEPRP | 0.0349
RRIRSRPPRLPRPRPRPVHRPRP | -0.0285
RRIRNRPPRLPRPRPRPVFAPRP | -0.0312
RRIRGRPPRLPRPRPRPQDGPRP | 0.0108
RRIRVRPPRLPRPRPRPSEFPRP | -0.233
RRIRLRPPRLPRPRPRPDQAPRP | -0.00133
RRIRGRPPRLPRPRPRPGEQPRP | 1.23
RRIRFRPPRLPRPRPRPPSPPRP | 0.688
RRIRNRPPRLPRPRPRPHVNPRP | -0.237
RRIRARPPRLPRPRPRPLPMPRP | 0.306
RRIRFRPPRLPRPRPRPNNQPRP | -0.559
RRIRDRPPRLPRPRPRPNWVPRP | 0.0019
RRIRTRPPRLPRPRPRPGHGPRP | 0.138
RRIRQRPPRLPRPRPRPNGGPRP | 0.00705
RRIRCRPPRLPRPRPRPRCEPRP | 0.0872
RRIRQRPPRLPRPRPRPPIMPRP | -0.344
RRIRGRPPRLPRPRPRPSHWPRP | 0.157
RRIRNRPPRLPRPRPRPMVPPRP | 0.0885
RRIRMRPPRLPRPRPRPMLIPRP | -0.00481
RRIRPRPPRLPRPRPRPRTVPRP | 0.322
RRIRLRPPRLPRPRPRPHVIPRP | 0.0211

Source: the supplement of paper PMC9112550, “Optimization of the antimicrobial peptide Bac7 by deep mutational scanning” (BMC Biology, 2022)
